Laboratory results as given in US10611814 (GEMOAB MONOCLONALS, dated 2020).

Tests used:
Assay in all cases: cell-based or functional assay
[1] = molecular target: T1, prostate stem cell antigen (UniProt O43653 12-83, limits assumed)
T1 sequence (looked up): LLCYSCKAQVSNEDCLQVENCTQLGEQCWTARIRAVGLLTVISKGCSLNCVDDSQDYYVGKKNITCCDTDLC

[2] = molecular target: prostate membrane antigen (UniProt Q04609 1-750, limits assumed)
CD123 antigen = CD123 antigen (UniProt P26951 19-378, limits assumed)
CD33 antigen = CD33 antigen (UniProt P20138 18-364, limits assumed)
Sequence of CD33 antigen (P20138 18-364 limits assumed): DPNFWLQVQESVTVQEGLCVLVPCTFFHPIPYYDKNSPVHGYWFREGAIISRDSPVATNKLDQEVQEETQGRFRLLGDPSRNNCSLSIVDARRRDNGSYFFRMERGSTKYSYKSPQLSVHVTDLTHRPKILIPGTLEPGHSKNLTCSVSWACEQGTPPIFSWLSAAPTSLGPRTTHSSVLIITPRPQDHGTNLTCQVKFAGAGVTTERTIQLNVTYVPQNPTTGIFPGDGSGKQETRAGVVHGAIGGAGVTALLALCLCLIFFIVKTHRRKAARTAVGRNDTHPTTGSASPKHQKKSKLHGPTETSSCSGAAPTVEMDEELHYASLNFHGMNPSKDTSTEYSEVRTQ

Sequence of CD123 antigen (P26951 19-378 limits assumed): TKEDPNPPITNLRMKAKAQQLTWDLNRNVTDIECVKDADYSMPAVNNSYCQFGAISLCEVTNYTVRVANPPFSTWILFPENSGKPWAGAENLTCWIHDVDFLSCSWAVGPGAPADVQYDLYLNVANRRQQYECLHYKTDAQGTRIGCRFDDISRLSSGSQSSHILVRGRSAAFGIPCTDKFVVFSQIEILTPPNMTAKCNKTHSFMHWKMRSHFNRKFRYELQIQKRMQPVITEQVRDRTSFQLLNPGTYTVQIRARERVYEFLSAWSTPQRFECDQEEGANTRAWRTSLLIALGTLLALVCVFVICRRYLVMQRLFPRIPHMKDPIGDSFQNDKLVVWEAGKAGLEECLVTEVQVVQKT
Sequence of prostate membrane antigen (Q04609 whole entry): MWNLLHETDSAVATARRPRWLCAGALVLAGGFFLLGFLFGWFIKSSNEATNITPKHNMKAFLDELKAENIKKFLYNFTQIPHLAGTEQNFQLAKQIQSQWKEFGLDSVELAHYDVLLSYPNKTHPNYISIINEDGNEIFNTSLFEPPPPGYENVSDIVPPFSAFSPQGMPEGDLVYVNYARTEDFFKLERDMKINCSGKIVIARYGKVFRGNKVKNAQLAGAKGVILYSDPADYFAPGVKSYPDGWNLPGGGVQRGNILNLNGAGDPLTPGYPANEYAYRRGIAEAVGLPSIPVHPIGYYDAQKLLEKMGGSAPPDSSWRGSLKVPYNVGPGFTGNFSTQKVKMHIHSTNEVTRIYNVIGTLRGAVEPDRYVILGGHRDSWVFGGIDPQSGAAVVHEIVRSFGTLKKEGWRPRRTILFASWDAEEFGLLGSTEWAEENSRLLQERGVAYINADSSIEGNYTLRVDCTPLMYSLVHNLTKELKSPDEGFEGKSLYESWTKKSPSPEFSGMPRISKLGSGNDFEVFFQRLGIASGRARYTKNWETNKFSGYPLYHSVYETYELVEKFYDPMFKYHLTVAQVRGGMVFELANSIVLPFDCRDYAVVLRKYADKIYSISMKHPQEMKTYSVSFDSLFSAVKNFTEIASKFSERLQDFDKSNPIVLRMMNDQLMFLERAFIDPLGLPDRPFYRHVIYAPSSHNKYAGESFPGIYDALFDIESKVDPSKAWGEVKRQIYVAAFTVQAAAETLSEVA

B1: target module specific for PSCA (scFv)
scFv: DAAQPAGSDIQMTQSPSSLSASVGDRVTITCGTSQDINNYLNWYQQKPGKVPKLLIYYTSRLHSGVPSRFSGSGSGTDFTLTISSLQPEDVATYYCQQSKTLPWTFGGGTQLTVLGGGGSGGGGSGASAAGGGGSGGGGSQVQLVESGGGLVKPGGSLRLSCAASGFTFSSYSMSWIRQAPGKGLEWVSYINDSGGSTFYPDTVKGRFTISRDNAKNSLYLQMNSLRAEDTAVYYCARRMYYGNSHWHFDVWGQGTTVTVSSGGGGSAAAKPLPEVTDEYARGGPEQKLISEEDLNSAVDHHHHHH
Half maximal effective dosis (EC50), 51Cr-release lysis of PC3 cells expressing PSCA by UniCAR T cells, e:t 5:1 [1]: ~12 pmol

B2: target module specific for PSMA (scFv)
scFv: DAAQPAEVQLQQSGPELVKPGTSVRISCKTSGYTFTEYTIHWVKQSHGKSLEWIGNINPNNGGTTYNQKFEDKATLTVDKSSSTAYMELRSLTSEDSAVYYCAAGWNFDYWGQGTTVTVSSGGGGSGGGGSGGGGSDIVMTQSHKFMSTSVGDRVSIICKASQDVGTAVDWYQQKPGQSPKLLIYWASTRHTGVPDRFTGSGSGTDFTLTITNVQSEDLADYFCQQYNSYPLTFGAGTMLDLKAAAKPLPEVTDEYARGGPEQKLISEEDLNSAVDHHHHHH
Half maximal effective dosis (EC50), 51Cr-release lysis of PC3 cells expressing PSMA by UniCAR T cells, e:t 5:1 [2]: ~12 pmol

B3: target module specific for CD123 (scFv)
scFv: DAAQPAEVQLQQSGPELVKPGASVKMSCKASGYTFTDYYMKWVKQSHGKSLEWIGDIIPSNGATFYNQKFKGKATLTVDRSSSTAYMHLNSLTSEDSAVYYCTRSHLLRASWFAYWGQGTLVTVSAASGGGGSGGGGSGGGGSDFVMTQSPSSLTVTAGEKVTMSCKSSQSLLNSGNQKNYLTWYLQKPGQPPKLLIYWASTRESGVPDRFTGSGSGTDFTLTISSVQAEDLAVYYCQNDYSYPYTFGGGTKLEIKGGGGSAAAKPLPEVTDEYARGGPEQKLISEEDLNSAVDHHHHHH
EC50, 51Cr-release lysis of MOLM-13 by UniCAR T cells, e:t 1:1, 24 h; combination of αCD33 TM + αCD123 TM (CD123 antigen): 70.2 pmol
EC50, 51Cr-release lysis of OCI-AML3 by UniCAR T cells, e:t 1:1, 24 h; combination of αCD33 TM + αCD123 TM (CD123 antigen): 80.2 pmol
EC50, lysis of MOLM-13 by UniCAR T cells, e:t 1:1 (CD123 antigen): 45 pmol

B4: target module specific for CD33 (scFv)
scFv: DAAQPAGSDIVLTQSPASLAVSPGQRATITCTASSSVNYIHWYQQKPGQPPKLLIYDTSKVASGVPARFSGSGSGTDFTLTINPVEANDTANYYCQQWRSYPLTFGQGTKLEIKGGGGSGGGGSGASGAGGGGSGGGGSQVQLVQSGAEVKKPGASVKVSCKASGYTFTDYVVHWVRQAPGQGLEWMGYINPYNDGTKYNEKFKGRVTMTRDTSISTAYMELSRLRSDDTAVYYCARDYRYEVYGMDYWGQGTLVTVSSGGGGSAAAKPLPEVTDEYARGGPEQKLISEEDLNSAVDHHHHHH
EC50, 51Cr-release lysis of MOLM-13 by UniCAR T cells, e:t 1:1, 24 h; combination of αCD33 TM + αCD123 TM (CD33 antigen): 70.2 pmol
EC50, 51Cr-release lysis of OCI-AML3 by UniCAR T cells, e:t 1:1, 24 h; combination of αCD33 TM + αCD123 TM (CD33 antigen): 80.2 pmol
EC50, lysis of MOLM-13 by UniCAR T cells, e:t 1:1 (CD33 antigen): 137 pmol

B5: bi-specific CD33-CD123 target module (bispecific antibody)
chain: DAAQPAEVQLQQSGPELVKPGASVKMSCKASGYTFTDYYMKWVKQSHGKSLEWIGDIIPSNGATFYNQKFKGKATLTVDRSSSTAYMHLNSLTSEDSAVYYCTRSHLLRASWFAYWGQGTLVTVSAASGGGGSGGGGSGGGGSDFVMTQSPSSLTVTAGEKVTMSCKSSQSLLNSGNQKNYLTWYLQKPGQPPKLLIYWASTRESGVPDRFTGSGSGTDFTLTISSVQAEDLAVYYCQNDYSYPYTFGGGTKLEIKAAAKPLPEVTDEYARGQVQLVQSGAEVKKPGASVKVSCKASGYTFTDYVVHWVRQAPGQGLEWMGYINPYNDGTKYNEKFKGRVTMTRDTSISTAYMELSRLRSDDTAVYYCARDYRYEVYGMDYWGQGTLVTVSSGGGGSGGGGSGGGGSDIVLTQSPASLAVSPGQRATITCTASSSVNYIHWYQQKPGQPPKLLIYDTSKVASGVPARFSGSGSGTDFTLTINPVEANDTANYYCQQWRSYPLTFGQGTKLEIKGPEQKLISEEDLNSAVDHHHHHH
EC50, 51Cr-release lysis of MOLM-13 by UniCAR T cells, e:t 1:1, 24 h; bispecific TM (CD33 antigen): 2.9 pmol
EC50, 51Cr-release lysis of OCI-AML3 by UniCAR T cells, e:t 1:1, 24 h; bispecific TM (CD33 antigen): 11.7 pmol
EC50, 51Cr-release lysis of MOLM-13 by UniCAR T cells, e:t 1:1, 24 h; bispecific TM (CD123 antigen): 2.9 pmol
EC50, 51Cr-release lysis of OCI-AML3 by UniCAR T cells, e:t 1:1, 24 h; bispecific TM (CD123 antigen): 11.7 pmol
